B1: DLC1 (parent)
chain: RDAIEALCRRLNTLNKCAVMKLEI

Variants of: B1
Assay: protein stability index of a GFP-peptide fusion (GPS, HEK-293T) (PSI 1-6); higher = more stable
Details: c terminus: a fixed tail appended
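Further: lentivirally expressed fusions sorted by FACS into six bins by GFP to DsRed ratio, PSI derived from sequencing read proportions per bin multiplied by bin number.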

Which protein stability index does the source give for RDAIEPLCRRLNTLNKCAVMKLEI [A6P] here?
The protein stability index was 3.8.

Which protein stability index does the source give for RDAIERLCRRLNTLNKCAVMKLEI [A6R] here?
The protein stability index was 2.92.

For RDAIESLCRRLNTLNKCAVMKLEI [A6S], which protein stability index is on record?
The protein stability index was 3.05.

With RDAIETLCRRLNTLNKCAVMKLEI [A6T] as the variant, how does the protein stability index read?
Its protein stability index is 2.35.

Which protein stability index does the source give for RDAIEYLCRRLNTLNKCAVMKLEI [A6Y] here?
The protein stability index was 1.73.

With RDAIEAACRRLNTLNKCAVMKLEI [L7A] as the variant, how does the protein stability index read?
The protein stability index was 2.37.

For RDAIEACCRRLNTLNKCAVMKLEI [L7C], which protein stability index is on record?
The protein stability index was 1.97.

Which protein stability index does the source give for RDAIEADCRRLNTLNKCAVMKLEI [L7D] here?
Its protein stability index is 2.13.

For RDAIEAECRRLNTLNKCAVMKLEI [L7E], which protein stability index is on record?
The protein stability index was 1.02.

For RDAIEAFCRRLNTLNKCAVMKLEI [L7F], which protein stability index is on record?
Its protein stability index is 2.12.

Which protein stability index does the source give for RDAIEAGCRRLNTLNKCAVMKLEI [L7G] here?
Its protein stability index is 2.13.

For RDAIEAHCRRLNTLNKCAVMKLEI [L7H], which protein stability index is on record?
Its protein stability index is 1.31.

For RDAIEAKCRRLNTLNKCAVMKLEI [L7K], which protein stability index is on record?
The protein stability index was 2.16.

For RDAIEAMCRRLNTLNKCAVMKLEI [L7M], which protein stability index is on record?
The protein stability index was 3.54.

With RDAIEANCRRLNTLNKCAVMKLEI [L7N] as the variant, how does the protein stability index read?
The protein stability index was 2.5.

Which protein stability index does the source give for RDAIEAPCRRLNTLNKCAVMKLEI [L7P] here?
Its protein stability index is 2.31.

Which protein stability index does the source give for RDAIEAQCRRLNTLNKCAVMKLEI [L7Q] here?
Its protein stability index is 2.41.

Which protein stability index does the source give for RDAIEARCRRLNTLNKCAVMKLEI [L7R] here?
Its protein stability index is 2.13.

With RDAIEASCRRLNTLNKCAVMKLEI [L7S] as the variant, how does the protein stability index read?
The protein stability index was 1.78.

For RDAIEATCRRLNTLNKCAVMKLEI [L7T], which protein stability index is on record?
Its protein stability index is 2.46.

Which protein stability index does the source give for RDAIEAVCRRLNTLNKCAVMKLEI [L7V] here?
Its protein stability index is 2.36.

Which protein stability index does the source give for RDAIEAYCRRLNTLNKCAVMKLEI [L7Y] here?
The protein stability index was 1.81.

For RDAIEALARRLNTLNKCAVMKLEI [C8A], which protein stability index is on record?
Its protein stability index is 2.37.

For RDAIEALDRRLNTLNKCAVMKLEI [C8D], which protein stability index is on record?
The protein stability index was 2.

Which protein stability index does the source give for RDAIEALFRRLNTLNKCAVMKLEI [C8F] here?
The protein stability index was 2.82.

For RDAIEALGRRLNTLNKCAVMKLEI [C8G], which protein stability index is on record?
The protein stability index was 3.13.

Which protein stability index does the source give for RDAIEALHRRLNTLNKCAVMKLEI [C8H] here?
Its protein stability index is 2.7.

Which protein stability index does the source give for RDAIEALIRRLNTLNKCAVMKLEI [C8I] here?
The protein stability index was 4.17.

Which protein stability index does the source give for RDAIEALKRRLNTLNKCAVMKLEI [C8K] here?
Its protein stability index is 1.84.

With RDAIEALLRRLNTLNKCAVMKLEI [C8L] as the variant, how does the protein stability index read?
The protein stability index was 2.33.

Which protein stability index does the source give for RDAIEALMRRLNTLNKCAVMKLEI [C8M] here?
Its protein stability index is 3.9.

With RDAIEALNRRLNTLNKCAVMKLEI [C8N] as the variant, how does the protein stability index read?
Its protein stability index is 2.35.

For RDAIEALPRRLNTLNKCAVMKLEI [C8P], which protein stability index is on record?
Its protein stability index is 2.04.

With RDAIEALQRRLNTLNKCAVMKLEI [C8Q] as the variant, how does the protein stability index read?
Its protein stability index is 1.07.

Which protein stability index does the source give for RDAIEALRRRLNTLNKCAVMKLEI [C8R] here?
Its protein stability index is 1.41.

Which protein stability index does the source give for RDAIEALSRRLNTLNKCAVMKLEI [C8S] here?
The protein stability index was 1.39.

Which protein stability index does the source give for RDAIEALTRRLNTLNKCAVMKLEI [C8T] here?
Its protein stability index is 1.46.

Which protein stability index does the source give for RDAIEALVRRLNTLNKCAVMKLEI [C8V] here?
Its protein stability index is 2.73.

For RDAIEALWRRLNTLNKCAVMKLEI [C8W], which protein stability index is on record?
Its protein stability index is 4.11.

With RDAIEALYRRLNTLNKCAVMKLEI [C8Y] as the variant, how does the protein stability index read?
The protein stability index was 3.24.

With RDAIEALCCRLNTLNKCAVMKLEI [R9C] as the variant, how does the protein stability index read?
The protein stability index was 3.38.

For RDAIEALCDRLNTLNKCAVMKLEI [R9D], which protein stability index is on record?
Its protein stability index is 2.25.

For RDAIEALCERLNTLNKCAVMKLEI [R9E], which protein stability index is on record?
Its protein stability index is 4.07.

Which protein stability index does the source give for RDAIEALCFRLNTLNKCAVMKLEI [R9F] here?
Its protein stability index is 2.45.

For RDAIEALCGRLNTLNKCAVMKLEI [R9G], which protein stability index is on record?
Its protein stability index is 1.83.

With RDAIEALCHRLNTLNKCAVMKLEI [R9H] as the variant, how does the protein stability index read?
Its protein stability index is 3.54.

For RDAIEALCIRLNTLNKCAVMKLEI [R9I], which protein stability index is on record?
The protein stability index was 1.79.

For RDAIEALCKRLNTLNKCAVMKLEI [R9K], which protein stability index is on record?
The protein stability index was 1.69.

Which protein stability index does the source give for RDAIEALCLRLNTLNKCAVMKLEI [R9L] here?
Its protein stability index is 1.63.

For RDAIEALCNRLNTLNKCAVMKLEI [R9N], which protein stability index is on record?
Its protein stability index is 3.68.

For RDAIEALCQRLNTLNKCAVMKLEI [R9Q], which protein stability index is on record?
Its protein stability index is 4.01.

With RDAIEALCSRLNTLNKCAVMKLEI [R9S] as the variant, how does the protein stability index read?
The protein stability index was 4.18.

Which protein stability index does the source give for RDAIEALCTRLNTLNKCAVMKLEI [R9T] here?
Its protein stability index is 2.37.

With RDAIEALCVRLNTLNKCAVMKLEI [R9V] as the variant, how does the protein stability index read?
The protein stability index was 2.69.

Which protein stability index does the source give for RDAIEALCRALNTLNKCAVMKLEI [R10A] here?
Its protein stability index is 2.67.

With RDAIEALCRCLNTLNKCAVMKLEI [R10C] as the variant, how does the protein stability index read?
Its protein stability index is 3.31.

Which protein stability index does the source give for RDAIEALCRFLNTLNKCAVMKLEI [R10F] here?
Its protein stability index is 1.86.

For RDAIEALCRHLNTLNKCAVMKLEI [R10H], which protein stability index is on record?
Its protein stability index is 3.54.

With RDAIEALCRILNTLNKCAVMKLEI [R10I] as the variant, how does the protein stability index read?
The protein stability index was 4.62.

Which protein stability index does the source give for RDAIEALCRKLNTLNKCAVMKLEI [R10K] here?
The protein stability index was 3.44.

For RDAIEALCRLLNTLNKCAVMKLEI [R10L], which protein stability index is on record?
The protein stability index was 2.43.

For RDAIEALCRMLNTLNKCAVMKLEI [R10M], which protein stability index is on record?
The protein stability index was 3.3.

For RDAIEALCRNLNTLNKCAVMKLEI [R10N], which protein stability index is on record?
Its protein stability index is 4.43.

With RDAIEALCRPLNTLNKCAVMKLEI [R10P] as the variant, how does the protein stability index read?
Its protein stability index is 2.71.

Which protein stability index does the source give for RDAIEALCRQLNTLNKCAVMKLEI [R10Q] here?
Its protein stability index is 3.82.

Which protein stability index does the source give for RDAIEALCRSLNTLNKCAVMKLEI [R10S] here?
Its protein stability index is 3.43.

For RDAIEALCRTLNTLNKCAVMKLEI [R10T], which protein stability index is on record?
The protein stability index was 3.17.

With RDAIEALCRVLNTLNKCAVMKLEI [R10V] as the variant, how does the protein stability index read?
The protein stability index was 1.86.

For RDAIEALCRWLNTLNKCAVMKLEI [R10W], which protein stability index is on record?
The protein stability index was 2.52.

With RDAIEALCRYLNTLNKCAVMKLEI [R10Y] as the variant, how does the protein stability index read?
The protein stability index was 2.21.

For RDAIEALCRRCNTLNKCAVMKLEI [L11C], which protein stability index is on record?
Its protein stability index is 3.62.

Which protein stability index does the source give for RDAIEALCRRDNTLNKCAVMKLEI [L11D] here?
Its protein stability index is 3.27.

Which protein stability index does the source give for RDAIEALCRRENTLNKCAVMKLEI [L11E] here?
Its protein stability index is 1.84.

Which protein stability index does the source give for RDAIEALCRRFNTLNKCAVMKLEI [L11F] here?
The protein stability index was 2.72.

With RDAIEALCRRHNTLNKCAVMKLEI [L11H] as the variant, how does the protein stability index read?
The protein stability index was 1.6.

For RDAIEALCRRKNTLNKCAVMKLEI [L11K], which protein stability index is on record?
Its protein stability index is 2.96.

For RDAIEALCRRNNTLNKCAVMKLEI [L11N], which protein stability index is on record?
Its protein stability index is 2.33.

For RDAIEALCRRPNTLNKCAVMKLEI [L11P], which protein stability index is on record?
Its protein stability index is 2.84.

With RDAIEALCRRQNTLNKCAVMKLEI [L11Q] as the variant, how does the protein stability index read?
Its protein stability index is 2.56.

With RDAIEALCRRRNTLNKCAVMKLEI [L11R] as the variant, how does the protein stability index read?
The protein stability index was 1.89.

For RDAIEALCRRSNTLNKCAVMKLEI [L11S], which protein stability index is on record?
Its protein stability index is 3.62.

For RDAIEALCRRTNTLNKCAVMKLEI [L11T], which protein stability index is on record?
Its protein stability index is 2.52.

For RDAIEALCRRWNTLNKCAVMKLEI [L11W], which protein stability index is on record?
The protein stability index was 2.05.

Which protein stability index does the source give for RDAIEALCRRYNTLNKCAVMKLEI [L11Y] here?
The protein stability index was 2.67.

With RDAIEALCRRLATLNKCAVMKLEI [N12A] as the variant, how does the protein stability index read?
The protein stability index was 1.09.

With RDAIEALCRRLCTLNKCAVMKLEI [N12C] as the variant, how does the protein stability index read?
The protein stability index was 3.35.

With RDAIEALCRRLDTLNKCAVMKLEI [N12D] as the variant, how does the protein stability index read?
The protein stability index was 4.53.

With RDAIEALCRRLETLNKCAVMKLEI [N12E] as the variant, how does the protein stability index read?
Its protein stability index is 1.84.

For RDAIEALCRRLFTLNKCAVMKLEI [N12F], which protein stability index is on record?
Its protein stability index is 2.97.

For RDAIEALCRRLHTLNKCAVMKLEI [N12H], which protein stability index is on record?
Its protein stability index is 2.28.

With RDAIEALCRRLKTLNKCAVMKLEI [N12K] as the variant, how does the protein stability index read?
Its protein stability index is 2.79.

For RDAIEALCRRLLTLNKCAVMKLEI [N12L], which protein stability index is on record?
Its protein stability index is 2.99.

With RDAIEALCRRLMTLNKCAVMKLEI [N12M] as the variant, how does the protein stability index read?
The protein stability index was 1.84.

For RDAIEALCRRLPTLNKCAVMKLEI [N12P], which protein stability index is on record?
The protein stability index was 2.26.
